In paper PMC5663463 (Protein expression and purification, 2012):

B1: His-SUMO tagged Staphylococcus aureus dihydroorotase (PyrC) (enzyme)
chain: LEVLFQGPMKLIKNGKVLQNGELQQADILIDGKVIKQIAPAIEPSNGVDIIDAKGHFVSPGFVDVHVHLREPGGEYKETIETGTKAAARGGFTTVCPMPNTRPVPDSVEHFEALQKLIDDNAQVRVLPYASITTRQLGKELVDFPALVKEGAFAFTDDGVGVQTASMMYEGMIEAAKVNKAIVAHCEDNSLIYGGAMHEGKRSKELGIPGIPNICESVQIARDVLLAEAAGCHYHVCHVSTKESVRVIRDAKRAGIHVTAEVTPHHLLLTEDDIPGNNAIYKMNPPLRSTEDREALLEGLLDGTIDCIATDHAPHARDEKAQPMEKAPFGIVGSETAFPLLYTHFVKNGDWTLQQLVDYLTIKPCETFNLEYGTLKENGYADLTIIDLDSEQEIKGEDFLSKADNTPFIGYKVYGNPILTMVEGEVKFEGDK
B2: native (cleaved) Staphylococcus aureus dihydroorotase (PyrC) (enzyme)
chain: GPMKLIKNGKVLQNGELQQADILIDGKVIKQIAPAIEPSNGVDIIDAKGHFVSPGFVDVHVHLREPGGEYKETIETGTKAAARGGFTTVCPMPNTRPVPDSVEHFEALQKLIDDNAQVRVLPYASITTRQLGKELVDFPALVKEGAFAFTDDGVGVQTASMMYEGMIEAAKVNKAIVAHCEDNSLIYGGAMHEGKRSKELGIPGIPNICESVQIARDVLLAEAAGCHYHVCHVSTKESVRVIRDAKRAGIHVTAEVTPHHLLLTEDDIPGNNAIYKMNPPLRSTEDREALLEGLLDGTIDCIATDHAPHARDEKAQPMEKAPFGIVGSETAFPLLYTHFVKNGDWTLQQLVDYLTIKPCETFNLEYGTLKENGYADLTIIDLDSEQEIKGEDFLSKADNTPFIGYKVYGNPILTMVEGEVKFEGDK

Target: the molecule itself
Experiment: SEC

Protein | stoichiometry N
B1 | 2
B2 | 2
